US6875737

Target: T cell receptor of the murine 2B4 T cell hybridoma
Assay: cell-based or functional assay

Row | Substance | IL-2 production in 2B4 cells: concentration needed for the maximum response, against 0.4 µM KbP-S-MCC (fold higher concentration) | IL-2 production in 2B4 cells at 0.4 µM KbP-S-MCC, against the maximum response obtained with the MCC peptide alone [fold]
1 | Moth cytochrome C peptide MCC 94-103 (from UniProt P00039 94-103) | 10 | –
2 | KbP-S-MCC (Lys-boroPro coupled through a spacer linker to the N terminus of moth cytochrome C peptide 94-103) (from UniProt P00039 94-103) | – | > 2
